Results published in patent US20050048070A1 (published 2005).

Legend:
[1] = target: T1, intact K8/K18(1-65) heterotypic complex (human, UniProt P05787 2-483; P05783 2-66); assay: heterotypic association Western blot (K18 fragments on the membrane, incubated with purified intact K8)
T1 construct: Heterotypic complex of two GST fusion proteins; not shown: glutathione S-transferase (GST) fusion partner, modified pGEX-2T vector
T1 chain 1: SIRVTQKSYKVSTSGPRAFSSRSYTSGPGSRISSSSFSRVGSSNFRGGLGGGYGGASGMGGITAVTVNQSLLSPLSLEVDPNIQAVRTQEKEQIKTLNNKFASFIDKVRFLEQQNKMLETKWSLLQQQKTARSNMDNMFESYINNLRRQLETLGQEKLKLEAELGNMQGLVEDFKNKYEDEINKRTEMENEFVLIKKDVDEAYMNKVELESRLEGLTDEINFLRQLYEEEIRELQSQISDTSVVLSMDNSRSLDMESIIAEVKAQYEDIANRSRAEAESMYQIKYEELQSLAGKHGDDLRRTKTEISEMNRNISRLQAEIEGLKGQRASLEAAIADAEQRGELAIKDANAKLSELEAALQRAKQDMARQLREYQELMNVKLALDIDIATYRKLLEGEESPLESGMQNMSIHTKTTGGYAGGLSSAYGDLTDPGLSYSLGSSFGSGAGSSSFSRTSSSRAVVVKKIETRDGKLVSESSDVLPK
T1 chain 2: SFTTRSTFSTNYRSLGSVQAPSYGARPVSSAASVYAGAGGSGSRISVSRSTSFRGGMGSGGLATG

[2] = target: T2, K8(1-233)/K18(1-72) heterotypic complex (human, UniProt P05787 2-234; P05783 2-73); assay: heterotypic association assay: blotted K18 proteins incubated with purified K8(1-233), then stained with COU-1
T2 construct: Heterotypic complex of two GST fusion proteins; not shown: glutathione S-transferase (GST) fusion partner, modified pGEX-2T vector
T2 sequence 1: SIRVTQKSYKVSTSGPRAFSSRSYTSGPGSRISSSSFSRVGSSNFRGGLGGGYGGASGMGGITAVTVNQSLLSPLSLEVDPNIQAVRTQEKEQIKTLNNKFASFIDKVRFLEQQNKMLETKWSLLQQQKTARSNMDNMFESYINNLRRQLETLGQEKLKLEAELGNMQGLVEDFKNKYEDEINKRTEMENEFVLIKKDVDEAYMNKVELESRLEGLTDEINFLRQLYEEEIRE
T2 sequence 2: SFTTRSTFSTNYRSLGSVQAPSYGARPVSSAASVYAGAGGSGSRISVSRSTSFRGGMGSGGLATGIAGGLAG

[3] = target: T3, K18(1-187) GST fusion protein (human, UniProt P05783 2-188); assay: Western blot of SDS-PAGE-separated K18 GST fusion proteins, stained with COU-1 alone
T3 construct: Alone, not complexed; not shown: glutathione S-transferase (GST) fusion partner, modified pGEX-2T vector
T3 sequence: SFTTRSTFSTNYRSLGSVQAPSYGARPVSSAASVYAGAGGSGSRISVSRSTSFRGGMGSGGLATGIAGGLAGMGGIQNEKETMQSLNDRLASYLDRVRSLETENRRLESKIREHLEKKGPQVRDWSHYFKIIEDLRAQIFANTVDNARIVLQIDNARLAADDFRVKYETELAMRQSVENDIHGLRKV

[4] = target: T4, K18(1-124) GST fusion protein (human, UniProt P05783 2-125); assay: as above
T4 construct: Alone, not complexed; not shown: glutathione S-transferase (GST) fusion partner, modified pGEX-2T vector

[5] = target: T5, K18(1-356) GST fusion protein (human, UniProt P05783 2-357); assay: as above
T5 construct: Alone, not complexed; not shown: glutathione S-transferase (GST) fusion partner, modified pGEX-2T vector
T5 sequence: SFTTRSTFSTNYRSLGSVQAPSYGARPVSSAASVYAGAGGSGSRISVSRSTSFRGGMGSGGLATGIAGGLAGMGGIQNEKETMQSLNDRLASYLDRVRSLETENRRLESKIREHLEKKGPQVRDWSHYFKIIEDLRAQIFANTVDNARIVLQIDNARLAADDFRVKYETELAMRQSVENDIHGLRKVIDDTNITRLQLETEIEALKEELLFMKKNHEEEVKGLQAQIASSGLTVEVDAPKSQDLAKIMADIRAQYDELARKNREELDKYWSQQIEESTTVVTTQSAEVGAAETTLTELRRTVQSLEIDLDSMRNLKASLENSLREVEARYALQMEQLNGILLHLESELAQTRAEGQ

[6] = target: T6, K18(1-312) GST fusion protein (human, UniProt P05783 2-313); assay: as above
T6 construct: Alone, not complexed; not shown: glutathione S-transferase (GST) fusion partner, modified pGEX-2T vector
T6 sequence: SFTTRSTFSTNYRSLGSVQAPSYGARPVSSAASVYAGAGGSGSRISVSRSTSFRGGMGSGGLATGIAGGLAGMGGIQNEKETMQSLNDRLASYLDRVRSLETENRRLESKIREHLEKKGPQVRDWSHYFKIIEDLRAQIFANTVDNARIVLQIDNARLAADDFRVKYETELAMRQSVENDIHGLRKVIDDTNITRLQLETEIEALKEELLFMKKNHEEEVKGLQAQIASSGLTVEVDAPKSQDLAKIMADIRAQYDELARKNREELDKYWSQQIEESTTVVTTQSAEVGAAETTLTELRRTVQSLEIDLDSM

[7] = target: T7, recombinant intact K18 (GST fusion protein) (human, UniProt P05783 2-430); assay: as above
T7 construct: Alone, not complexed with K8; also called full length K18; cytokeratin 18; not shown: glutathione S-transferase (GST) fusion partner, modified pGEX-2T vector
T7 sequence: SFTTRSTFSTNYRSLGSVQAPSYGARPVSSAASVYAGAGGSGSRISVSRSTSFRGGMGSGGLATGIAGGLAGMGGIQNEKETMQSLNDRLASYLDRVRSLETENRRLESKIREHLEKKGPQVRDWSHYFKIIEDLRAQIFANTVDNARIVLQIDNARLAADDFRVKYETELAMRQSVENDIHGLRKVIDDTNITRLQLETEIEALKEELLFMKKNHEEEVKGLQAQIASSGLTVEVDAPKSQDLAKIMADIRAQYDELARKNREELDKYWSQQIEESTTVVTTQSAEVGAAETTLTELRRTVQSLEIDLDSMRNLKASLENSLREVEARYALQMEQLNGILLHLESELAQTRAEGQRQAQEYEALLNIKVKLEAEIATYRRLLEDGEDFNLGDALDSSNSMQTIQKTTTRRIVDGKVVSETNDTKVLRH

B1: human monoclonal IgM antibody COU-1 (antibody, V domains shown)
VH: GAEVKKPGASVKVSCKASDYTFSSYYMHWVRQAPGQGLEWMGIINPSGGSTSYAQKFQGRVTMTRDTSTNTVYMELSSLRSEDTAVYYCARDQVVVAATLSNYGMDVWGQGTTVTVSS
VL: ELTQSPGTLSLSPGERATLSCRASQSVSSSYLAWYQQKPGQAPRLLIYDASNRATGIPARFSGSGSGTDFTLTISSLEPEDFAVYYCQQGTNWGIAFGQGTRLDIKR
notes: Human IgM with kappa light chain, secreted by hybridoma B9165 (ECACC 87040201), purified from culture supernatant; also called HMab COU-1; HuMab COU-1
[1]
  binding result: no binding (tested: COU-1 5 µg/ml)
[2]
  binding result: no binding (tested: 5 µg/ml COU-1 (P-0285))
[3]
  binding result: no binding (tested: 5 µg/ml COU-1 (P-0279))
[4]
  binding result: no binding (tested: 5 µg/ml COU-1 (P-0279))
[5]
  binding result: no binding (tested: 5 µg/ml COU-1 (P-0279))
[6]
  binding result: no binding (tested: 5 µg/ml COU-1 (P-0279))
[7]
  binding result: no binding (tested: 5 µg/ml COU-1 (P-0279))
